Experimental data published in patent publication US20250152742A1, “COMPOSITIONS AND METHODS FOR NEUROLOGICAL DISEASES” (Trames Bio, Inc., priority 2022, published 2025).

System: engineered chimeric receptor SEQ ID NO: 33 and its mutants (human α7-nAChR ligand binding domain / human GlyRα1 ion pore domain) in Lenti-X 293T cells
Assay: YFP fluorescence quenching anion reporter plate reader assay (percent quench, EC50)
Format: cell-based
Details: for YFP fluorescence quenching using CNL001 (percent quench): receptor named in row; for YFP fluorescence quenching using Facinicline, 30 nM fac: ligand Facinicline 30 nM; for YFP fluorescence quenching using Facinicline, 300 nM fac: ligand Facinicline 300 nM; for YFP fluorescence quenching using Facinicline, 30 uM fac: ligand Facinicline 30 uM; for YFP fluorescence quenching using TC-6987, 1 uM tc6987: ligand TC-6987 1 uM; for YFP fluorescence quenching using TC-6987, 10 uM tc6987: ligand TC-6987 10 uM; for YFP fluorescence quenching using TC-6987, 500 uM tc6987: ligand TC-6987 500 uM; for YFP fluorescence quenching using Varenicline, 3 nM var: ligand Varenicline 3 nM; for YFP fluorescence quenching using Varenicline, 30 nM var: ligand Varenicline 30 nM; for YFP fluorescence quenching using Varenicline, 300 nM var: ligand Varenicline 300 nM; for YFP fluorescence quenching using Varenicline, 500 nM var: ligand Varenicline 500 nM; for YFP fluorescence quenching using Varenicline, 1 uM var: ligand Varenicline 1 uM
Outline: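 Lenti-X 293T cells co-expressing an anion-quenchable YFP were transiently transfected with receptor DNA, then ligand was added in NaI-substituted buffer (pH 7.2) after 30 min at 37 °C. Fluorescence was read about 2 min; percent quench = mean of last 10 s over 15 s pre-ligand baseline.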

[1] = 1 nM CNL001, first column so headed
[2] = 1 nM CNL001, second column so headed
[3] = 3 nM brd (TC-5619/Bradanicline)
[4] = 10 nM CNL001, first column so headed
[5] = 10 nM CNL001, second column so headed
[6] = 30 nM brd (TC-5619/Bradanicline)
[7] = 50 nM CNL001, first column so headed
[8] = 50 nM CNL001, second column so headed
[9] = 100 nM CNL001, first column so headed
[10] = 100 nM CNL001, second column so headed
[11] = 300 nM brd (TC-5619/Bradanicline)
[12] = 1 uM CNL001, first column so headed
[13] = 1 uM CNL001, second column so headed

B1: CODA807: engineered receptor: Y115D, L131E in SEQ ID NO: 33 (protein)
chain: MRCSPGGVWLALAASLLHVSLQGEFQRKLYKELVKNYNPLERPVANDSQPLTVYFSLSLLQIMDVDEKNQVLTTNIWLQMSWTDHYLQWNVSEYPGVKTVRFPDGQIWKPDILLDNSADERFDATFHTNVEVNSSGHCQYLPPGIFKSSCPMDLKNFPMDVQTCKLKFGSWSYGGWSLDLQMQEADISGYIPNGEWDLVGIPGKRSERFYECCKEPYPDVTFTVTMRRRMGYYLIQMYIPSLLIVILSWISFWINMDAAPARVGLGITTVLTMTTQSSGSRASLPKVSYVKAIDIWMAVCLLFVFSALLEYAAVNFVSRQHKELLRFRRKRRHHKSPMLNLFQEDEAGEGRFNFSAYGMGPACLQAKDGISVKGANNSNTTNPPPAPSKSPEEMRKLFIQRAKKIDKISRIGFPMAFLIFNMFYWIIYKIVRREDVHNQ
modifications: synthetic sequence of chimeric LGIC
YFP fluorescence quenching using CNL001 (percent quench) [1]: 0.885%
YFP fluorescence quenching using CNL001 (percent quench) [2]: −1.707%
YFP fluorescence quenching using TC-5619/Bradanicline (percent quench) (1 nM brd (TC-5619/Bradanicline)): −1.52%
YFP fluorescence quenching using TC-5619/Bradanicline (percent quench) [3]: −5.35%
YFP fluorescence quenching using CNL001 (percent quench) [4]: −0.567%
YFP fluorescence quenching using CNL001 (percent quench) [5]: 0.043%
YFP fluorescence quenching using TC-5619/Bradanicline (percent quench) (10 nM brd (TC-5619/Bradanicline)): −3.49%
YFP fluorescence quenching using TC-6683 (percent quench) (30 nM TC-6683): −26.801%
YFP fluorescence quenching using TC-5619/Bradanicline (percent quench) [6]: −2.16%
YFP fluorescence quenching using CNL001 (percent quench) [7]: 5.141%
YFP fluorescence quenching using CNL001 (percent quench) [8]: 9.409%
YFP fluorescence quenching using ABT-126 (percent quench) (50 nM abt (ABT-126)): −1.68%
YFP fluorescence quenching using CNL001 (percent quench) [9]: 9.796%
YFP fluorescence quenching using CNL001 (percent quench) [10]: 11.009%
YFP fluorescence quenching (percent quench) (100 nM CNL002): −5.71%
YFP fluorescence quenching using ABT-126 (percent quench) (100 nM abt (ABT-126)): −2.25%
YFP fluorescence quenching using AZD-0328 (percent quench) (100 nM azd0328): 24.49%
YFP fluorescence quenching using TC-5619/Bradanicline (percent quench) (100 nM brd (TC-5619/Bradanicline)): 4.18%
YFP fluorescence quenching using TC-6683 (percent quench) (300 nM TC-6683): −25.363%
YFP fluorescence quenching using ABT-126 (percent quench) (300 nM abt (ABT-126)): −2.37%
YFP fluorescence quenching using AZD-0328 (percent quench) (300 nM azd0328): 45.34%
YFP fluorescence quenching using TC-5619/Bradanicline (percent quench) [11]: 70.2%
YFP fluorescence quenching using CNL001 (percent quench) [12]: 27.914%
YFP fluorescence quenching using CNL001 (percent quench) [13]: 29.109%
YFP fluorescence quenching (percent quench) (1 uM CNL002): 13.03%
YFP fluorescence quenching using ABT-126 (percent quench) (1 uM abt (ABT-126)): 3.68%
YFP fluorescence quenching using TC-5619/Bradanicline (percent quench) (1 uM brd (TC-5619/Bradanicline)): 43.11%
YFP fluorescence quenching using TC-6683 (percent quench) (3 uM TC-6683): −23.651%
YFP fluorescence quenching (percent quench) (10 uM ach (acetylcholine)): 15.45%
YFP fluorescence quenching (percent quench) (30 uM CNL002): 25.2%
YFP fluorescence quenching using TC-6683 (percent quench) (30 uM TC-6683): −26.235%
YFP fluorescence quenching using AZD-0328 (percent quench) (30 uM azd0328): 71.21%
YFP fluorescence quenching using TC-6683 (percent quench) (100 uM TC-6683): −24.182%
YFP fluorescence quenching (percent quench) (100 uM ach (acetylcholine)): 13.77%
YFP fluorescence quenching (percent quench) (1 mM ach (acetylcholine)): 27.42%
YFP fluorescence quenching (percent quench) (3 mM ach (acetylcholine)): 53.62%
YFP fluorescence quenching using Facinicline, 30 nM fac: 45.76
YFP fluorescence quenching using Facinicline, 100 nM fac (ligand Facinicline 100 nM): 63.92
YFP fluorescence quenching using Facinicline, 300 nM fac: 79.43
YFP fluorescence quenching using Facinicline, 10 uM fac (ligand Facinicline 10 uM): 80.1
YFP fluorescence quenching using Facinicline, 30 uM fac: 84.91
YFP fluorescence quenching using TC-6987, 1 uM tc6987: 36.07
YFP fluorescence quenching using TC-6987, 10 uM tc6987: 31.35
YFP fluorescence quenching using TC-6987, 500 uM tc6987: 28.18

B2: CODA952: engineered receptor: Y140I in SEQ ID NO: 33 (protein)
chain: MRCSPGGVWLALAASLLHVSLQGEFQRKLYKELVKNYNPLERPVANDSQPLTVYFSLSLLQIMDVDEKNQVLTTNIWLQMSWTDHYLQWNVSEYPGVKTVRFPDGQIWKPDILLYNSADERFDATFHTNVLVNSSGHCQILPPGIFKSSCPMDLKNFPMDVQTCKLKFGSWSYGGWSLDLQMQEADISGYIPNGEWDLVGIPGKRSERFYECCKEPYPDVTFTVTMRRRMGYYLIQMYIPSLLIVILSWISFWINMDAAPARVGLGITTVLTMTTQSSGSRASLPKVSYVKAIDIWMAVCLLFVFSALLEYAAVNFVSRQHKELLRFRRKRRHHKSPMLNLFQEDEAGEGRFNFSAYGMGPACLQAKDGISVKGANNSNTTNPPPAPSKSPEEMRKLFIQRAKKIDKISRIGFPMAFLIFNMFYWIIYKIVRREDVHNQ
modifications: synthetic sequence of chimeric LGIC
YFP fluorescence quenching using CNL001 (percent quench) [1]: 0.368%
YFP fluorescence quenching using CNL001 (percent quench) [2]: −1.976%
YFP fluorescence quenching using TC-5619/Bradanicline (percent quench) [3]: −2.45%
YFP fluorescence quenching using CNL001 (percent quench) [4]: −3.923%
YFP fluorescence quenching using CNL001 (percent quench) [5]: 4.348%
YFP fluorescence quenching using TC-6683 (percent quench) (30 nM TC-6683): −27.7%
YFP fluorescence quenching using TC-5619/Bradanicline (percent quench) [6]: 66.97%
YFP fluorescence quenching using CNL001 (percent quench) [7]: 74.107%
YFP fluorescence quenching using CNL001 (percent quench) [8]: 75.866%
YFP fluorescence quenching using ABT-126 (percent quench) (50 nM abt (ABT-126)): −12.34%
YFP fluorescence quenching using CNL001 (percent quench) [9]: 80.323%
YFP fluorescence quenching using CNL001 (percent quench) [10]: 81.996%
YFP fluorescence quenching (percent quench) (100 nM CNL002): 32.58%
YFP fluorescence quenching using ABT-126 (percent quench) (100 nM abt (ABT-126)): −11.57%
YFP fluorescence quenching using AZD-0328 (percent quench) (100 nM azd0328): −12.96%
YFP fluorescence quenching using TC-6683 (percent quench) (300 nM TC-6683): −26.87%
YFP fluorescence quenching using ABT-126 (percent quench) (300 nM abt (ABT-126)): −5.21%
YFP fluorescence quenching using AZD-0328 (percent quench) (300 nM azd0328): −13.21%
YFP fluorescence quenching using TC-5619/Bradanicline (percent quench) [11]: 78.48%
YFP fluorescence quenching using CNL001 (percent quench) [12]: 83.489%
YFP fluorescence quenching using CNL001 (percent quench) [13]: 82.208%
YFP fluorescence quenching (percent quench) (1 uM CNL002): 69.08%
YFP fluorescence quenching using ABT-126 (percent quench) (1 uM abt (ABT-126)): 3.93%
YFP fluorescence quenching using TC-6683 (percent quench) (3 uM TC-6683): −31.2%
YFP fluorescence quenching (percent quench) (10 uM ach (acetylcholine)): −1.97%
YFP fluorescence quenching (percent quench) (30 uM CNL002): 73.28%
YFP fluorescence quenching using TC-6683 (percent quench) (30 uM TC-6683): −33.12%
YFP fluorescence quenching using AZD-0328 (percent quench) (30 uM azd0328): 68.5%
YFP fluorescence quenching using TC-6683 (percent quench) (100 uM TC-6683): −24.67%
YFP fluorescence quenching (percent quench) (100 uM ach (acetylcholine)): 2.79%
YFP fluorescence quenching (percent quench) (1 mM ach (acetylcholine)): 58.81%
YFP fluorescence quenching (percent quench) (3 mM ach (acetylcholine)): 66.9%
YFP fluorescence quenching using Facinicline, 30 nM fac: −8.83
YFP fluorescence quenching using Facinicline, 300 nM fac: 51.6
YFP fluorescence quenching using Facinicline, 30 uM fac: 71.01
YFP fluorescence quenching using TC-6987, 1 uM tc6987: 6.03
YFP fluorescence quenching using TC-6987, 10 uM tc6987: 2.25
YFP fluorescence quenching using TC-6987, 500 uM tc6987: −0.24
YFP fluorescence quenching using Varenicline, 3 nM var (first column): −22.522
YFP fluorescence quenching using Varenicline, 3 nM var (second column): −18.173
YFP fluorescence quenching using Varenicline, 30 nM var (first column): −15.306
YFP fluorescence quenching using Varenicline, 30 nM var (second column): −12.832
YFP fluorescence quenching using Varenicline, 300 nM var (first column): −14.671
YFP fluorescence quenching using Varenicline, 300 nM var (second column): −17.016
YFP fluorescence quenching using Varenicline, 500 nM var (first column): −16.713
YFP fluorescence quenching using Varenicline, 500 nM var (second column): −18.893
YFP fluorescence quenching using Varenicline, 1 uM var (first column): −15.847
YFP fluorescence quenching using Varenicline, 1 uM var (second column): −16.236
